Measured values taken from publication PMC3887213.

How the values were obtained:
Experiment in all cases: two-hybrid; quantitative YTH (Q-YTH): chlorophenol-red-β-D-galactopyranoside colour change at 540 nm, background (bait + empty pACT2) subtracted, normalised to wild-type RocCOR = 100%
[1] = target: LRRK2 RocCOR tandem domain R1441C (LexA-BD bait) (human) (UniProt Q5S007)
[2] = target: LRRK2 RocCOR tandem domain R1441G (LexA-BD bait) (human) (UniProt Q5S007)
[3] = target: LRRK2 RocCOR tandem domain R1441H (LexA-BD bait) (human) (UniProt Q5S007)
Sequence of LRRK2 RocCOR tandem domain R1441H (LexA-BD bait) (human) (Q5S007 whole entry R1441H, the tested form may be a part): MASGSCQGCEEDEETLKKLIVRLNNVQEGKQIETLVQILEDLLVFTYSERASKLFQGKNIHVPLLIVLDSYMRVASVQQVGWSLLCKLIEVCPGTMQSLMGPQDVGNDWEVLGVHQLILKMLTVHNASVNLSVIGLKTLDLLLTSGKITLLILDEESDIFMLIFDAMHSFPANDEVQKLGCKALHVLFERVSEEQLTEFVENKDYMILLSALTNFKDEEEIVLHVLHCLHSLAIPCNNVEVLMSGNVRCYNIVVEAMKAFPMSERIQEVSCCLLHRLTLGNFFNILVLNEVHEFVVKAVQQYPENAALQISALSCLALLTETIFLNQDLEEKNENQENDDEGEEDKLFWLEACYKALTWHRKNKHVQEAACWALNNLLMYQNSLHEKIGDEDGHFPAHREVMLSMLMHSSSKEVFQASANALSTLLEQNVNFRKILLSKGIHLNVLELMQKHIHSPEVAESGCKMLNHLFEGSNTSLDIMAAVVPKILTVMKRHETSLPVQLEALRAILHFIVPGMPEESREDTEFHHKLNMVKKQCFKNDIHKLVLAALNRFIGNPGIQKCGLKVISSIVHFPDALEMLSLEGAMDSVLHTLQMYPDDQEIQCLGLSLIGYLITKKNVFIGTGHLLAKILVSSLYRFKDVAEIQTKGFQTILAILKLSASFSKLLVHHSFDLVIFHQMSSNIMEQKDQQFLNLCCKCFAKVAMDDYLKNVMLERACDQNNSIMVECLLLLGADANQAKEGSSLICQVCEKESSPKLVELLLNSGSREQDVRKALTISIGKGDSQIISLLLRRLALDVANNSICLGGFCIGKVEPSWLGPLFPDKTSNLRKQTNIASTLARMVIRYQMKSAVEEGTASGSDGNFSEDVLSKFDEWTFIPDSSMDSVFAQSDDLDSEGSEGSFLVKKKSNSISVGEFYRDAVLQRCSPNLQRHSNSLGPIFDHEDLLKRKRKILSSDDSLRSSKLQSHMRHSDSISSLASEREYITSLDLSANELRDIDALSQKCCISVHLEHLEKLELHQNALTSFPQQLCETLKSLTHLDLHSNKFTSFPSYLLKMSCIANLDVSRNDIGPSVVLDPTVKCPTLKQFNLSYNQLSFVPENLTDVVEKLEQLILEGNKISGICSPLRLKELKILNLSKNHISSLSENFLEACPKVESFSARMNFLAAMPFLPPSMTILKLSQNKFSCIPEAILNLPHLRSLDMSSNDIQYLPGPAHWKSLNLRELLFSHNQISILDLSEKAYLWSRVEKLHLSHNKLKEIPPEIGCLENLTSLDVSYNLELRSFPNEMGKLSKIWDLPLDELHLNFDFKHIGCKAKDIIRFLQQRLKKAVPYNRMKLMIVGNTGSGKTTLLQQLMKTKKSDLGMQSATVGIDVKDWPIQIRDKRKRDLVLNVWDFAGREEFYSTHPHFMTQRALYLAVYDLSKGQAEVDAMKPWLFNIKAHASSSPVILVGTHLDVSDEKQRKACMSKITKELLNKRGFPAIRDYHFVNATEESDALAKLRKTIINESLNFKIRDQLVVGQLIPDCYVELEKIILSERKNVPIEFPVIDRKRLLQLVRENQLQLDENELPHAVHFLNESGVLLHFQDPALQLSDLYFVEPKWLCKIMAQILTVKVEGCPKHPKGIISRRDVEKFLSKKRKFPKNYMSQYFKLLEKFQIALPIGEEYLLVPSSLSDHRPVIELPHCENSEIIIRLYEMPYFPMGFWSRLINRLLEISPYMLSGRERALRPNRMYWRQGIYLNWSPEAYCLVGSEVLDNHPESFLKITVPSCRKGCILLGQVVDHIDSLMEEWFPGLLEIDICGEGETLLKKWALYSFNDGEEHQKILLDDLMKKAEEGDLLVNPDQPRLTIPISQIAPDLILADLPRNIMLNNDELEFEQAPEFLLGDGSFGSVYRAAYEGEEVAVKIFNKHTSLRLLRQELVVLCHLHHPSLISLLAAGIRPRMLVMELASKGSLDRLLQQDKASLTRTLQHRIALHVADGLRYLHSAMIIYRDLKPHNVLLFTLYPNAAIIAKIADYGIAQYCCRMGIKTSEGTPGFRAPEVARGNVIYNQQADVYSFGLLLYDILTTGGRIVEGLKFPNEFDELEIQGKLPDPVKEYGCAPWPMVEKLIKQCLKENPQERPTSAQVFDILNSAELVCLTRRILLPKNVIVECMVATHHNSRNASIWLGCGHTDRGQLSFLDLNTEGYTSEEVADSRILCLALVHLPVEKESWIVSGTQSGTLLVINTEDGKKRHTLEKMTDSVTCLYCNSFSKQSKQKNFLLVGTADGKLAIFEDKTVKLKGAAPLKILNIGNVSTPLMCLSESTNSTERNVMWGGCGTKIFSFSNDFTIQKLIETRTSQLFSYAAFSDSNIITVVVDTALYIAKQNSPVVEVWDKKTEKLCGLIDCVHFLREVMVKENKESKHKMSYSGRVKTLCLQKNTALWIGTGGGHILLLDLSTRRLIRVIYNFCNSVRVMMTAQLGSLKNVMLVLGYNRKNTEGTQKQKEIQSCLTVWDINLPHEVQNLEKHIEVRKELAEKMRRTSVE

Sequence of TUBB C terminus (Phe-317 to the stop codon), GAL4-AD prey (P07437 317-444): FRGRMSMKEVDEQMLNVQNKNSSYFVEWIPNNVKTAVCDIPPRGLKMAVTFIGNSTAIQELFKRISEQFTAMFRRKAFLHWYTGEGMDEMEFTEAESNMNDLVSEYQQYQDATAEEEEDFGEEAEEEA
Sequence of TUBB4 C terminus (Phe-317 to Ala-444), GAL4-AD prey (P04350 317-444): as the sequence (P07437 317-444) above, with N16S, N19S, V49A, E117G, D119F, F120E, G121E, E123A, A124E, E127V counted along it
Sequence of LRRK2 RocCOR tandem domain R1441C (LexA-BD bait) (human) (Q5S007 whole entry R1441C, the tested form may be a part): as the sequence (Q5S007 whole entry R1441H, the tested form may be a part) above, with H1441C counted along it
Sequence of LRRK2 RocCOR tandem domain R1441G (LexA-BD bait) (human) (Q5S007 whole entry R1441G, the tested form may be a part): as the sequence (Q5S007 whole entry R1441H, the tested form may be a part) above, with H1441G counted along it

percent increase of the interaction against wild-type RocCOR (Q-YTH) [1] | percent reduction of the interaction against wild-type RocCOR (Q-YTH) [2] | percent reduction of the interaction against wild-type RocCOR (Q-YTH) [3] | Substance
25% | 50% | 25% | TUBB C terminus (Phe-317 to the stop codon), GAL4-AD prey (from UniProt P07437 317-444) (domain or fragment)
25% | 50% | 25% | TUBB4 C terminus (Phe-317 to Ala-444), GAL4-AD prey (from UniProt P04350 317-444) (domain or fragment)
